Where two headings read alike, the source gives them in different places.
T1: Human CD228 protein (human, UniProt P08582 20-708, limits assumed)
T1 construct: A His tag is named only for the panning and Western blot material (CD228-His); also called CD228 antigenic protein; C28
T1 sequence: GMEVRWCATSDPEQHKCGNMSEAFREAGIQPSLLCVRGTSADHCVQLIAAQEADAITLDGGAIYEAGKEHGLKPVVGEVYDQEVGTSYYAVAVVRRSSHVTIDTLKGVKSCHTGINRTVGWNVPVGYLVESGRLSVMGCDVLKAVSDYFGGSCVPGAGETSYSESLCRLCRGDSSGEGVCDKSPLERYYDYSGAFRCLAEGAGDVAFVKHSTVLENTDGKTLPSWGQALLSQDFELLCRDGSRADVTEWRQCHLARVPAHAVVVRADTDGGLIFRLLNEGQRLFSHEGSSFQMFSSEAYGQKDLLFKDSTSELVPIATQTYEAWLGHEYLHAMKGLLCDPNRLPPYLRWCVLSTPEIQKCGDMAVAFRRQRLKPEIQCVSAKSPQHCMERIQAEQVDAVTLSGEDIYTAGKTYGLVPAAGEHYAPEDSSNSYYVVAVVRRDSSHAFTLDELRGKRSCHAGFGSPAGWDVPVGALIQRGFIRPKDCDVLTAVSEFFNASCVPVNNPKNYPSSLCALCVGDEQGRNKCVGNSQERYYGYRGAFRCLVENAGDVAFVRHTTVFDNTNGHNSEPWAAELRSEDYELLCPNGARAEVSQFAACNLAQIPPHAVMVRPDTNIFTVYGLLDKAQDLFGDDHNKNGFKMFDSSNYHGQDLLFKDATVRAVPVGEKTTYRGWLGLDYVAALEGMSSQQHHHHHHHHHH

B1: R546 (antibody, V domains shown)
VH: QSLEESGGRLVKPDETLTLTCTVSGFSLSSYDMSWVRQAPGKGLQWIGAATAGGNTYHASWAKGRFTISKTSTTVDLKITSPTTEDTATYFCTRGLNIWGPGTLVTVSS
VL: DPMLTQTASPVSAAVGSTVTINCQASQSVYNNNNLNWYQQKPGQPPKLLIYAASTLASGVPSRFKGSGSGTQFTLTISDVQCDDAATYYCLGAYDCSSADCGAFGGGTELEILG
notes: Rabbit-derived clone from a phage library, made as a full-length antibody with rabbit constant regions in HEK293 cells; also called CD228-R546; self-made antibody R546
B2: R526 (antibody, V domains shown)
VH: QEQLEESGGRLVTPGTPLTLTCTVSGFSLSTYAINWIRQAPGKGLEWIGIIGGNGATYYTNWAKGRFTISKTSTTVDLKITSPTIEDTATYFCARGTNFWGPGTLVTVSS
VL: DPVLTQTASPVSAAVGGTITINCQASQSVYNNNQLSWFQQNPGQPPKRLIHSTSTLAPGVSSRFKGSGSGTQFTLTISDVQCDDAATYYCLGSYDCVSADCNAFGGGTEVVVKG
notes: Rabbit-derived clone, full-length antibody with rabbit constant regions

How the values were obtained:
[1] = molecular target: T1, Human CD228 protein; experiment: ELISA, plate coated with CD228 protein at 0.2 µg/mL
[2] = molecular target: T1, Human CD228 protein; experiment: BLI, antibody on ProA sensor, CD228 protein in solution
[3] = molecular target: T1, Human CD228 protein; experiment: as above; remark: listed apart in the source

Binder | EC50 [1] [ng/mL] | Kd [2] [nM] | Response [2] | Kd [3] [nM]
B1 | 1.52 | 1.33 | 0.128 | 1.33
B2 | 5.71 | < 0.001 | 0.0251 | –

From patent publication EP4755912A1 (Shandong Boan Biotechnology Co., Ltd., dated 2026)
